In experiment [1] the target is T1, LAIR-1 (human; form used for the KD not stated) (human, UniProt Q6GTX8 22-165, limits assumed).
T1 construct: also called Leukocyte Associated Immunoglobulin Like Receptor 1
T1 chain: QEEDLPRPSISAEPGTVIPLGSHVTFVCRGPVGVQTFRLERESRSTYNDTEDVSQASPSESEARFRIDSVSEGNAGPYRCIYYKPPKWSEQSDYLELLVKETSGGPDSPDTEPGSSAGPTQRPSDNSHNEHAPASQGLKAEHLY
Description: method not stated (in vitro activity listed in the legend of FIG. 20).

In experiment [2] the target is T2, human LAIR-1 expressed on cells (293T cells overexpressing human LAIR-1; leukemic cells) (human, UniProt Q6GTX8 22-287).
T2 construct: also called human LAIR-1 cells
T2 chain: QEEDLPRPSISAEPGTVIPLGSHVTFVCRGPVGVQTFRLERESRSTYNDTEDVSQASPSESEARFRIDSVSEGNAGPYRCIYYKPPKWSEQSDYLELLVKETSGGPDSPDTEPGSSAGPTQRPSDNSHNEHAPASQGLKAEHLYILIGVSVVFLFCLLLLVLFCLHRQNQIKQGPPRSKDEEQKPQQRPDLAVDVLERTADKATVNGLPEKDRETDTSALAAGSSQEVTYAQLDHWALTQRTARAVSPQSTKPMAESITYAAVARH
Briefly: cell binding, human LAIR-1 cells (FIG. 20A).

For experiment [3], the target named is human LAIR-1 fused to the zeta chain of CD3, on UT-140 reporter cells (human, UniProt P20963 31-164). Description: cell-based or functional assay.

B1: h11B3 LAIR-1 mAb, Anti-LAIR-1 Variant 6 (h11B3 VL-2 / h11B3 VH-3) (antibody, V domains shown)
VH: EVQLVESGGGLVQPGGSLKLSCAASGFTFNTNAMYWVRQAPGKGLEWVGRIRSKSSNYATYYAASVKGRFTISRDDSKNTLYLQMNSLKTEDTAVYYCVRGGSGFFAYWGQGTLVTVSS
VL: DIQMTQSPSSLSASLGDRVTITCKASEDIYIRLAWYQQKPGKAPRLLISTATSLETGVPSRFSGSGSGTDYTFTISSLQPEDIATYYCQQYWSTPYTFGGGTRLEIK
notes: In the MV4-11 staining the mAb was AF647-conjugated; also called h11B3v6; humanized 11B3 LAIR-1 mAbs
Regarding B1, binding in experiment [1] was characterised by a dissociation constant (Kd) of 2.1 nM. In addition, the response in experiment [2] was half-maximal at 0.15 nM (EC50). Further, the “blocks signaling IC50” value in experiment [3] amounted to 0.25 nM.

One may read the Kd as the free concentration of one partner at which half of the binding sites on the other are occupied at equilibrium, for simple one-to-one binding. A word on the EC50: it is the midpoint of the concentration-response curve.

The values above are taken from patent publication US20240352121A1 (NEXTCURE, published 2024).
